# Columns and labels:
# [1] = target: NCenH3^CenpA-lacI (human)
# [2] = target: NCenH3^Cse4-lacI (Saccharomyces cerevisiae)
substance,measurement,setting,value
BubR1 (natural protein),silencing of the white-reporter (eye pigmentation) in S9.2 flies on tethering of the lacI fusion: share of lines with significant silencing,[1],50 % of lines
same,silencing of the white-reporter (eye pigmentation) in S9.2 flies on tethering of the lacI fusion: share of lines with strong silencing,[2],75 % of lines

# From PMC2966416
